Laboratory results: US20200262914A1 (MIT, published 2020)

Legend:
[1] = molecular target: T1, human Bfl-1 (residues 1-151) (human, UniProt Q16548 1-151); assay: competition FP vs fluoresceinated Bim BH3, solution
T1 construct: range 1-151
T1 sequence (looked up): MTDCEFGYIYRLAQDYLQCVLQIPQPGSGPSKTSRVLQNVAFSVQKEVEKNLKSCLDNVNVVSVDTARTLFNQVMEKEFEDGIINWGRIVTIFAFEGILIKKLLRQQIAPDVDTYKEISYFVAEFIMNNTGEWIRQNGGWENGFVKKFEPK
Excerpt: (§1) We used the cell-surface experiments to select six peptides, for which we determined solution Ki values using a competition fluorescence polarization (FP) assay (FIG. 3, panel d).

[2] = molecular target: T1, human Bfl-1 (residues 1-151); assay: yeast surface display
[3] = molecular target: T2, human Bcl-xL (residues 1-209) (human, UniProt Q07817 1-209); assay: yeast surface display
T2 construct: range 1-209
T2 sequence (Q07817 1-209 limits assumed): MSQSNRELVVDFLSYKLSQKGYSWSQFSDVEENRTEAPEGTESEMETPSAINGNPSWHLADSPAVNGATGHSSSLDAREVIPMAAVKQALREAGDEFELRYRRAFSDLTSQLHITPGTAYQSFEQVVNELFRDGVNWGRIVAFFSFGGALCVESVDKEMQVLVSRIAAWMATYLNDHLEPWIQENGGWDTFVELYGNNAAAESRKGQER

[4] = molecular target: T3, human Mcl-1 (residues 172-327) (human, UniProt Q07820 172-327); assay: yeast surface display
T3 construct: range 172-327
T3 sequence (Q07820 172-327 limits assumed): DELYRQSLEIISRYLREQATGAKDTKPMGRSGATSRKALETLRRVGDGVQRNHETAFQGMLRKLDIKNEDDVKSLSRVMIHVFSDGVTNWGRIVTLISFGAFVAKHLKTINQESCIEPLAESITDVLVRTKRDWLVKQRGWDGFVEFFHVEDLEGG

[5] = molecular target: T3, human Mcl-1 (residues 172-327); assay: competition FP vs fluoresceinated Bim BH3, solution
Excerpt: as §1

[6] = molecular target: T2, human Bcl-xL (residues 1-209); assay: yeast display, sparse titration, apparent KD;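 also: designs displayed on the yeast cell surface, binding of soluble target protein measured at four concentrations spanning nanomolar to micromolar, apparent KD estimated from this sparse titration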
Description: (§2) We measured binding of the designs to 1, 10, 100 or 1000 nM of Bcl-xL, Mcl-1 and Bfl-1 using yeast cell-surface display.

[7] = molecular target: T1, human Bfl-1 (residues 1-151); assay: yeast display, sparse titration, apparent KD;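 also: designs displayed on the yeast cell surface, binding of soluble target protein measured at four concentrations spanning nanomolar to micromolar, apparent KD estimated from this sparse titration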
Description: as §2

[8] = molecular target: T3, human Mcl-1 (residues 172-327); assay: yeast display, sparse titration, apparent KD;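 also: designs displayed on the yeast cell surface, binding of soluble target protein measured at four concentrations spanning nanomolar to micromolar, apparent KD estimated from this sparse titration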
Description: as §2

[9] = molecular target: T2, human Bcl-xL (residues 1-209); assay: competition FP vs fluoresceinated Bim BH3, solution
Excerpt: as §1

Ac-RRVVQIAAGLRRAGDQLEKYGER-NH2 [srt.F10]
Ki [1]: 300 nM

GRRVDEIAQILRRIGDNIEEYI [MF03]
binding result [2]: binds | binding result [3]: binds | binding result [4]: binds

GRRVDEIAQILRRIGDNINEYI [MF04]
binding result [2]: binds | binding result [3]: binds | binding result [4]: binds

GRRVDEIAQILRRIGDQIEEYI [MF07]
binding result [2]: binds | binding result [3]: binds | binding result [4]: binds

B1: srt.M9 (peptide)
peptide: Ac-RSQYEVIQELIRIGDIVLAYFER-NH2
notes: synthetic solution peptide; also called vM9
Ki [5]: 0.6 nM

GRRIDEIAQILRRIGDHIEKYI [MF01]
binding result [2]: binds | binding result [3]: binds | binding result [4]: binds

GRRIDEIAQILRRIGDHVEKYI [MF05]
binding result [2]: binds | binding result [3]: binds | binding result [4]: binds

GRRVDEIAQILRRIGDNVTTYI (also called MF6) [MF06]
binding result [2]: binds | binding result [4]: binds

B2: srt.M1 (peptide)
peptide: Ac-RSELEVVQELVRIGDIVVAYFER-NH2
notes: synthetic solution peptide; also called vM1
Ki [5]: 2.4 nM

GQSLIWFGASLRRGADEFAAQR [X6]
Kd [6]: < 100 nM

GQPLIWFGAQLRRGADEFAAQR [X7]
Kd [6]: < 100 nM

GQTLIWFGASLRRGADEFAAQR [X11]
Kd [6]: < 100 nM

GQPLIWFGASLRRGADEFAKQR [X3]
Kd [6]: < 100 nM

GQRVVQIAAGLRRTGDQLEKYG [F6]
Kd [7]: < 100 nM

GRRVVHIAAGLRRTGDQLEAQG [F3]
Kd [7]: < 100 nM

GQRVVQIAQGLRRTGDQLEKQG [F7]
Kd [7]: < 100 nM

GRRVVQIAAGLRRTGDQLEKQG [F8]
Kd [7]: < 100 nM

GQRVVHIAQGLRRTGDQLEAQG [F5]
Kd [7]: < 100 nM

GQRVVQIAQGLRRAGDQLEKYG [F11]
Kd [7]: < 100 nM

GRRVVQIAQGLRRAGDQLEKQG [F12]
Kd [7]: < 100 nM

GRSLYEYIQELIRIGDEVTAYF [M3]
Kd [8]: < 100 nM

GRSLLEYIQELIRIGDEVIAYF [M4]
Kd [8]: < 100 nM

Ac-QRVVHIAAGLRRTGDQLEAYGER-NH2 [srt.F4]
Ki [1]: > 4000 nM

GRSELEVVQELVRIGDIVVAYF [M1]
Kd [8]: < 100 nM

Ac-QWAREIGAQLRRMADDLNAQYER-NH2 [Puma]
Ki [1]: 4.8 nM | Ki [5]: 1.69 nM

Ac-QRIIWIAAELRRAADELDKQIER-NH2 (synthetic solution peptide) [srt.XF02]
Ki [1]: 10 nM | Ki [9]: 37 nM

Ac-QRIIWIAAELRRAADQLDAQIER-NH2 (synthetic solution peptide) [srt.XF03]
Ki [1]: 22 nM | Ki [9]: 120 nM

GRRVRHIAQGLRRAGDQLDAYG [F1]
Kd [7]: < 100 nM

GQRVRHIAQGLRRTGDQLDAYG [F2]
Kd [7]: < 100 nM

GRRVRHIAQGLRRAGDQLDKYG [F9]
Kd [7]: < 100 nM

GRSQIWYDQELVRSGDVNAAYR [MX2]
binding result [3]: no binding | binding result [4]: no binding

GRSEIWYDQELVRSGDVNAAYR [MX7]
binding result [3]: no binding | binding result [4]: no binding

GRSQIWYDQELVRSGDENAAYR [MX3]
binding result [3]: no binding | binding result [4]: no binding

GRSQIWYVQELVRSGDVNHAYR [MX6]
binding result [3]: no binding | binding result [4]: no binding

GRSQIWYVQELVRGGDVNHAYR [MX1]
binding result [3]: no binding | binding result [4]: no binding

GRSQIWYDQELVRYGDVNAAYR [MX5]
binding result [3]: no binding | binding result [4]: no binding

GRSQIWYDQELVRYADVNAAYR [MX4]
binding result [3]: no binding | binding result [4]: no binding

GRSEYEYIQELIRIGDIVDAYF [M11]
Kd [8]: < 100 nM

GRSEYEYIQELVRIGDEVDAYF [M2]
Kd [8]: < 100 nM

GRSELEYIQELVRIGDEVDAYF [M5]
Kd [8]: < 100 nM

GRSELEYIQELIRIGDNVDAYF [M7]
Kd [8]: < 100 nM

GRSEYEYIQELIRIGDNVDAYF [M10]
Kd [8]: < 100 nM

GRGQLEYIQELIRIGDIVDAYF [M6]
Kd [8]: < 100 nM

GRSELEYIQELIRIGDIVDAYF [M8]
Kd [8]: < 100 nM

GRGQYEYIQELIRIGDIVDAYF [M12]
Kd [8]: < 100 nM

GRSQYEVIQELIRIGDIVLAYF [M9]
Kd [8]: < 100 nM

GRWIDQIAQFLRRIGDHIEKYI (also called MF2) [MF02]
binding result [2]: binds | binding result [3]: binds | binding result [4]: binds

GQTLIWYGAQLRRYADEFAKQR [X2]
Kd [6]: < 100 nM

GQTLIWYGAQLRRYADDFAKQR [X9]
Kd [6]: < 100 nM

GQSMIWYGASLRRAADEFAKQR [X8]
Kd [6]: < 100 nM

GQGLIWYGAQLRRVADDFAKQR [X12]
Kd [6]: < 100 nM

GQTAIWYGASLRRAADEFAKQR [X5]
Kd [6]: < 100 nM

GQTLIWYGASLRRYADEFAKQR [X1]
Kd [6]: < 100 nM

GQRLIWYGAQLRRYADDFAKQR [X10]
Kd [6]: < 100 nM

GQTLIWYGAQLRRVADDFAKQR [X4]
Kd [6]: < 100 nM
